In assay [1] the target is S100A1 as used in the titrations with the RAGE V domain (mutant-S100A1 (C85S) by the introduction) (human). Nature of the assay: NMR titration; 1H-15N HSQC, 15N-labelled protein with the unlabelled partner added, each pair in both directions, molar ratios 1:0 and 1:1 (1:0.66 and 1:1 for Kd); 25 °C; 20 mM Tris, 5 mM CaCl2, 5 mM DTT, 50 mM (NH4)2SO4, pH 7.2; Kd as the mean over selected residues.

A further assay concerns the target RAGE V domain (UniProt Q15109).
Assay [2] has as its target S100A1 (human). Kind of assay: other fluorescence titration; intrinsic tryptophan fluorescence of 3.50 μM S100A1, S100B added from 0 to 42 μM in steps of 2 μM; excitation 295 nm, emission read at 351 nm.
The target of assay [3] is S100A1 (human). Kind of assay: NMR titration; 1H-15N HSQC, 15N-labelled protein with the unlabelled partner added, each pair in both directions, molar ratios 1:0 and 1:1 (1:0.66 and 1:1 for Kd); 25 °C; 20 mM Tris, 5 mM CaCl2, 5 mM DTT, 50 mM (NH4)2SO4, pH 7.2; Kd as the mean over selected residues.

Sequence of RAGE V domain (Q15109 24-128): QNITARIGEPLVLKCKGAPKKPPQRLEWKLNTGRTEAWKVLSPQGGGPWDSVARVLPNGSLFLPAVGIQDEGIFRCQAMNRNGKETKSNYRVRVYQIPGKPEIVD

Take “RAGE V domain (from UniProt Q15109 24-128) (domain or fragment)”: the Kd in assay [1] was determined as 6.13 µM.
In the assay with RAGE V domain, S100A1 (natural protein) came in with a WST-1 proliferation assay, serum-starved SW480 cells (RAGE highly expressed) treated for 48 h with 10, 50 and 100 nM S100A1; viable cell count against the serum-free control of 1.53 fold; a WST-1 proliferation assay, serum-starved SW480 cells treated for 48 h with 100 nM S100A1 and 100 nM S100B; viable cell count against the serum-free control of 1.39 fold.
On to S100B (natural protein), for which the values for the dissociation constant (Kd) in the assay with S100A1 (human) [2] and in the assay with S100A1 (human) [3] were 1.9 µM and 5.9 µM, respectively.

By Kd is commonly meant the equilibrium constant for the complex coming apart.
